Reference: patent US20260185070A1, “CRISPR-Cas Effector Polypeptides, Lipid Nanoparticles, and Methods of Use Thereof” (The Regents of the University of California, priority 2022, published 2026)

Legend:
NPCs = assay: NPC viability with LNPs containing different pegylated lipids; assay type: cell-based, mouse
Description: Several pegylated lipids, commercial and synthetic, were examiner for their ability to encapsulate and deliver iGeoCas9 RNPs in LNPs (FIG. 48c). […] The reduced toxicity and enhanced delivery efficiency of these 3 PEGylated lipids stems from the pH-sensitive, acid-degradable acetal linker used in their synthesis (FIG. 49): the labile acetal linker could be cleaved in the late endosome stage of LNP delivery with a pH of 5-6, which frees the PEG moiety from the lipid molecules to reduce cytotoxicity and meanwhile destabilizes the endosome to promote the release of RNP into the cytosol. Further optimization of other parameters (e.g., mole and volume ratios of lipids to RNP, and salt concentration in the buffer, FIG. 50b) in LNP assembly established two sets of lipid formulations, i.e., standard formula (with DOTAP as the cationic lipid) and cationic formula (with ADC as the cationic lipid), which encapsulate GeoCas9 RNPs with good particle uniformity (diameter: 170-180 nm, PDI: 0.13-0.17) (FIG. 41b).

[1] = system: EGFP transgene in a model HEK293T cell line; assay: EGFP-to-BFP HDR by LNP co-delivery of RNP and ssDNA template in HEK293T cells; assay type: cell-based, human; conditions: additive in RNP LNPs; in words
Description: It was investigated if the co-delivery of iGeoCas9 RNPs and ssDNA templates in LNPs could switch EGFP to the blue fluorescent protein (BFP) in a model HEK293T cell line (FIG. 43b). In this cell assay, editing of the chromophore Thr-Tyr-Gly in the EGFP transgene followed by HDR to install a Ser/Thr-His-Gly chromophore turns EGFP into BFP. Four sgRNAs, rEGFP-R1 to R4, were designed to target the coding and non-coding strands in the chromophore region for editing. To avoid possible recutting events after the incorporation of the desired edits, four ssDNA HDR templates were designed to introduce GFP-to-BFP edits together with additional silent mutations in the DNA sequence. […] The HDR level was quantified to be between 20-40% by flow cytometry with 50-75% of non-homologous end-joining (NHEJ) indicated as EGFP knockdown (FIGS. 4b and 51).
LNP delivery: 4-6.5k cells/well were seeded in 96-well plates 48 hours prior to LNP treatment (HEK293 cells: 4-5k. NPCs: 5-6k, and 16HBEge cells: 6-6.5k). The culture media was refreshed 24 hours after LNP treatment. HEK293T cells were split after 2 additional days with a ratio of […] based on cell confluency. […]
Cell fluorescence was assayed on an Attune NxT acoustic focusing cytometer (Thermo Fisher Scientific) equipped with 554 nm excitation laser and 585/16 emission filter (tdTomato). […] Data were analyzed using Attune Cytometric Software v5.1.1.

ccdB toxin gene = assay: bacterial dual-plasmid selection assay (Cas9 cleavage of ccdB plasmid, survival rate); assay type: cell-based, E. coli; conditions: for survival rate: sgRNA target sequence #6, PAM ggatGAAA
Protocol: A bacterial dual-plasmid selection system was employed for the directed evolution of GeoCas9, which has been successfully employed for engineering other CRISPR Cas effectors. […] To search for a reliable evolution starting point with minimal activity in the E. coli assay, 20 different sgRNAs that target the ccdB gene at the protospacers associated with different PAM sequences were screened (FIG. 46d) and selection under two sets of conditions was performed (37 C or 30 C for 1.5 hours). […] Libraries of GeoCas9 mutants were generated by targeting different domains of the protein for random mutagenesis (FIG. 46a) and then subjected to the selection system under the conditions at 30° C.
A chloramphenicol-resistant (CAM+) bacterial expression plasmid was built to have the insert gene of GeoCas9 together with its corresponding sgRNA that targets the ccdB gene in the selection plasmid with a PAM of GAAA (g6). Libraries of GeoCas9 mutants were generated by error-prone PCR to introduce random mutagenesis in three different regions (BH-Rec, RuvC-HNH-WED, and WED-PI). The error-prone PCR (with an error rate of 3- to 5-nucleotide mutations per kilobase) was carried out with the Taq DNA polymerase (New England BioLabs) in a reaction containing 2 μl of 10 mM primers, 1.5 μl of 10 mM MnCl2, 2 ng of template plasmid. The plasmid libraries were generated by ligating the mutated fragments with the remaining part of the plasmid through Gibson assembly. The plasmid libraries (-100 ng DNA after clean-up) were electroporated into 50 μl of electronically competent cells made from E. coli strain BW25141(DE3) that contains the selection plasmid encoding the arabinose-inducible ccdB toxin gene. After recovery of the electroporated bacteria in 750 μl of SOB for 1.5 hours at 30° C., the bacteria culture was concentrated; 1% of the total culture was plated onto a Petri agar dish containing only CAM (as control), and the remainder culture was plated on another Petri agar-dish containing both arabinose and CAM. […]

[2] = protein melting temperature, thermal shift assay; assay type: physicochemical
Protocol: Protein melting temperatures were measured using the thermal shift assay (GloMelt™, CAT #33021). The assay was performed on a quantitative PCR system with a temperature increase rate of 2° C./min. The protein melting temperatures were determined as the peak values in the derivative curves of the melting curves.

Molecule: DMG-PEG
- toxicity / biocompatibility with NPCs (NPCs): detrimental to NPC viability

Molecule: heparin
- effect of anionic polymer additive on editing levels [1]: reduced editing

B1: GeoCas9: Geobacillus stearothermophilus CRISPR-Cas effector polypeptide, SEQ ID NO: 1; thermostable type II-C Cas9 (protein, listed as Geobacillus stearothermophilus)
chain: MRYKIGLDIGITSVGWAVMNLDIPRIEDLGVRIFDRAENPQTGESLALPRRLARSARRRLRRRKHRLERIRRLVIREGILTKEELDKLFEEKHEIDVWQLRVEALDRKLNNDELARVLLHLAKRRGFKSNRKSERSNKENSTMLKHIEENRAILSSYRTVGEMIVKDPKFALHKRNKGENYTNTIARDDLEREIRLIFSKQREFGNMSCTEEFENEYITIWASQRPVASKDDIEKKVGFCTFEPKEKRAPKATYTFQSFIAWEHINKLRLISPSGARGLTDEERRLLYEQAFQKNKITYHDIRTLLHLPDDTYFKGIVYDRGESRKQNENIRFLELDAYHQIRKAVDKVYGKGKSSSFLPIDFDTFGYALTLFKDDADIHSYLRNEYEQNGKRMPNLANKVYDNELIEELLNLSFTKFGHLSLKALRSILPYMEQGEVYSSACERAGYTFTGPKKKQKTMLLPNIPPIANPVVMRALTQARKVVNAIIKKYGSPVSIHIELARDLSQTFDERRKTKKEQDENRKKNETAIRQLMEYGLTLNPTGHDIVKFKLWSEQNGRCAYSLQPIEIERLLEPGYVEVDHVIPYSRSLDDSYTNKVLVLTRENREKGNRIPAEYLGVGTERWQQFETFVLTNKQFSKKKRDRLLRLHYDENEETEFKNRNLNDTRYISRFFANFIREHLKFAESDDKQKVYTVNGRVTAHLRSRWEFNKNREESDLHHAVDAVIVACTTPSDIAKVTAFYQRREQNKELAKKTEPHFPQPWPHFADELRARLSKHPKESIKALNLGNYDDQKLESLQPVFVSRMPKRSVTGAAHQETLRRYVGIDERSGKIQTVVKTKLSEIKLDASGHFPMYGKESDPRTYEAIRQRLLEHNNDPKKAFQEPLYKPKKNGEPGPVIRTVKIIDTKNQVIPLNDGKTVAYNSNIVRVDVFEKDGKYYCVPVYTMDIMKGILPNKAIEPNKPYSEWKEMTEDYTFRFSLYPNDLIRIELPREKTVKTAAGEEINVKDVFVYYKTIDSANGGLELISHDHRFSLRGVGSRTLKRFEKYQVDVLGNIYKVRGEKRVGLASSAHSKPGKTIRPLQSTRD
- survival rate (ccdB toxin gene; selection 30° C. for 1.5 hours): < 0.1%
- survival rate (ccdB toxin gene; selection 37 C for 1.5 hours): 2-5%
- survival in the bacterial assay (ccdB toxin gene; validation of selected mutant vs wild-type, temperature not stated): < 5%
- Tm (thermostability) [2]: 60 °C
